Molecular target: T1, Recombinant in-house Human FcRn protein (human, UniProt P55899 24-297; P61769 21-119)
T1 construct: also called HuFcRn; huFcRn
Assay: competition ELISA, huFcRn coated, pH 6.0, competitor biotinylated human IgG1; reference PAL02-0002
Protocol: A competitive binding ELISA assay was used to screen for molecules that prevent IgG from binding to recombinant in-house human FcRn protein at pH 6.0. Candidate therapeutics prevent FcRn from binding IgG Abs in the acidic pH 6.0 endosomal environment. […] IC50 values were calculated using GraphPad Prism 7 software applying a nonlinear regression (curve fit) of a log (antagonist) vs. response—variable slop (four parameters).

T1 sequence (P55899 24-297 limits assumed, chain 1 of 2): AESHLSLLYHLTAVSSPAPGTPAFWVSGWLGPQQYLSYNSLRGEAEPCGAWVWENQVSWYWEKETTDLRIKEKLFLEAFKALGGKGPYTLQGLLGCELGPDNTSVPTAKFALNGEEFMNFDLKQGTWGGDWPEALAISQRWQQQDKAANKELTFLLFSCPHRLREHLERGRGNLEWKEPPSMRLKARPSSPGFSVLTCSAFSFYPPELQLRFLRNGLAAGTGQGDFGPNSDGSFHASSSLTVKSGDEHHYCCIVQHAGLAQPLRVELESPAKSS
T1 sequence (P61769 21-119 limits assumed, chain 2 of 2): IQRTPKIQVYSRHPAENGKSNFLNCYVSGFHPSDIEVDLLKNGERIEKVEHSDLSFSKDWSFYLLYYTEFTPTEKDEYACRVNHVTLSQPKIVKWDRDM

| Binder | IC50 as a ratio to Efgartigimod [ratio] | fold lower IC50 than Efgartigimod [fold] |
| --- | --- | --- |
| Construct 1 PAL02-0195 (IgG1 Fc_M252Y/S254T/T256E/M428L/H433K/N434F) (other, Fc fragment variant) DKTHTCPPCPAPELLGGPSVFLFPPKPKDTLYITREPEVTCVVVDVSHEDPEVKFNWYVDGVEVHNAKTKPREEQYNSTYRVVSVLTVLHQDWLNGKEYKCKVSNKALPAPIEKTISKAKGQPREPQVYTLPPSRDELTKNQVSLTCLVKGFYPSDIAVEWESNGQPENNYKTTPPVLDSDGSFFLYSKLTVDKSRWQQGNVFSCSVLHEALKFHYTQKSLSLSPG | ~0.5 |  |
| Construct 3 PAL02-0197 (IgG1 Fc_M252Y/S254T/T256E/H433K/N434Y) (other, Fc fragment variant) DKTHTCPPCPAPELLGGPSVFLFPPKPKDTLYITREPEVTCVVVDVSHEDPEVKFNWYVDGVEVHNAKTKPREEQYNSTYRVVSVLTVLHQDWLNGKEYKCKVSNKALPAPIEKTISKAKGQPREPQVYTLPPSRDELTKNQVSLTCLVKGFYPSDIAVEWESNGQPENNYKTTPPVLDSDGSFFLYSKLTVDKSRWQQGNVFSCSVMHEALKYHYTQKSLSLSPG | ~0.5 | 3.5 |
| Construct 4 PAL02-0198 (IgG1 Fc_M252Y/S254T/T256E/M428L/N434F) (other, Fc fragment variant) DKTHTCPPCPAPELLGGPSVFLFPPKPKDTLYITREPEVTCVVVDVSHEDPEVKFNWYVDGVEVHNAKTKPREEQYNSTYRVVSVLTVLHQDWLNGKEYKCKVSNKALPAPIEKTISKAKGQPREPQVYTLPPSRDELTKNQVSLTCLVKGFYPSDIAVEWESNGQPENNYKTTPPVLDSDGSFFLYSKLTVDKSRWQQGNVFSCSVLHEALHFHYTQKSLSLSPG | ~0.5 |  |
| Construct 5 PAL02-0200 (IgG1 Fc_M252Y/S254T/T256E/H433R/N434Y) (other, Fc fragment variant) DKTHTCPPCPAPELLGGPSVFLFPPKPKDTLYITREPEVTCVVVDVSHEDPEVKFNWYVDGVEVHNAKTKPREEQYNSTYRVVSVLTVLHQDWLNGKEYKCKVSNKALPAPIEKTISKAKGQPREPQVYTLPPSRDELTKNQVSLTCLVKGFYPSDIAVEWESNGQPENNYKTTPPVLDSDGSFFLYSKLTVDKSRWQQGNVFSCSVMHEALRYHYTQKSLSLSPG | ~0.5 |  |
| Construct 6 PAL02-0202 (IgG1 Fc_M252Y/S254T/T256E/H433R/N434F) (other, Fc fragment variant) DKTHTCPPCPAPELLGGPSVFLFPPKPKDTLYITREPEVTCVVVDVSHEDPEVKFNWYVDGVEVHNAKTKPREEQYNSTYRVVSVLTVLHQDWLNGKEYKCKVSNKALPAPIEKTISKAKGQPREPQVYTLPPSRDELTKNQVSLTCLVKGFYPSDIAVEWESNGQPENNYKTTPPVLDSDGSFFLYSKLTVDKSRWQQGNVFSCSVMHEALRFHYTQKSLSLSPG | ~0.5 |  |
